Source: patent publication US20170129954A1 (PROTHENA BIOSCIENCES, published 2017)
Numbering of substitutions follows the chain as printed. Numbers in names are those of the source.

T1: human MCAM (antigen of the BLI kinetics in Example 7) (human, UniProt P43121 24-559, limits assumed)
T1 chain: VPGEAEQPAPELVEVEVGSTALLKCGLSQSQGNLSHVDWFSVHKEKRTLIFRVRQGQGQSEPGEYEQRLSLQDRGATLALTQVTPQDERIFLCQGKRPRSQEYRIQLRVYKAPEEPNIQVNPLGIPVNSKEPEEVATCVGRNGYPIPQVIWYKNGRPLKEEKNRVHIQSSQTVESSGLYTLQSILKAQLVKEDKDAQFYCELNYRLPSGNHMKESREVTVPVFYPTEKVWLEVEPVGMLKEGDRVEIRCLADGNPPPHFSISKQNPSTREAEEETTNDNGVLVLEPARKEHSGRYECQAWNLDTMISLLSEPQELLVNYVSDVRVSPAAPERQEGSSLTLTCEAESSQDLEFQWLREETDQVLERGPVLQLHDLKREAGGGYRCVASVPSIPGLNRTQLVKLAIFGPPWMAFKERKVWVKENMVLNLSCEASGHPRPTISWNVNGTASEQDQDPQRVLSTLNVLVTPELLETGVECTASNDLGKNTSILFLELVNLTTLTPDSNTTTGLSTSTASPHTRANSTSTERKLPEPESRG

T2: human MCAM domain 1 (amino acids 19-129) hFc (human, UniProt P43121 19-129)
T2 construct: One of the various MCAMhFc domains captured on anti-human IgG Fc biosensors; also called MCAMhFc domain; not shown: human IgG Fc (hFc)
T2 sequence: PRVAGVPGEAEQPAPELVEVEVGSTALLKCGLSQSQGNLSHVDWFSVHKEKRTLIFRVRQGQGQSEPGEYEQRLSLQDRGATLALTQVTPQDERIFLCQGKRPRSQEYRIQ

T3: human MCAM domain 2 (amino acids 139-242) hFc (human, UniProt P43121 139-242)
T3 construct: One of the various MCAMhFc domains captured on anti-human IgG Fc biosensors; also called MCAMhFc domain; not shown: human IgG Fc (hFc)
T3 sequence: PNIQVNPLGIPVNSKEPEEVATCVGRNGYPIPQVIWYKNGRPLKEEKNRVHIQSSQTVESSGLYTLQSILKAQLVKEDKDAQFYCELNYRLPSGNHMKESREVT

T4: combination of human MCAM domains 1 and 2 (amino acids 19-242) hFc (human, UniProt P43121 19-242)
T4 construct: One of the various MCAMhFc domains captured on anti-human IgG Fc biosensors; also called combination of domains 1 and 2; MCAMhFc domain; not shown: human IgG Fc (hFc)
T4 sequence: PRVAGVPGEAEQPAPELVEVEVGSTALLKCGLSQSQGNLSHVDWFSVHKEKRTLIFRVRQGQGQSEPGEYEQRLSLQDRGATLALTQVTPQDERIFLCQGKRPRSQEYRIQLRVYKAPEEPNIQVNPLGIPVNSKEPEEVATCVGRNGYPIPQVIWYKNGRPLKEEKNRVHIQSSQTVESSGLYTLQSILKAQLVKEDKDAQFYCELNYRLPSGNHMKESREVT

T5: human MCAM, full length, expressed on transfected cells (human, UniProt P43121 24-646)
T5 construct: also called CD146; MUC18
T5 chain: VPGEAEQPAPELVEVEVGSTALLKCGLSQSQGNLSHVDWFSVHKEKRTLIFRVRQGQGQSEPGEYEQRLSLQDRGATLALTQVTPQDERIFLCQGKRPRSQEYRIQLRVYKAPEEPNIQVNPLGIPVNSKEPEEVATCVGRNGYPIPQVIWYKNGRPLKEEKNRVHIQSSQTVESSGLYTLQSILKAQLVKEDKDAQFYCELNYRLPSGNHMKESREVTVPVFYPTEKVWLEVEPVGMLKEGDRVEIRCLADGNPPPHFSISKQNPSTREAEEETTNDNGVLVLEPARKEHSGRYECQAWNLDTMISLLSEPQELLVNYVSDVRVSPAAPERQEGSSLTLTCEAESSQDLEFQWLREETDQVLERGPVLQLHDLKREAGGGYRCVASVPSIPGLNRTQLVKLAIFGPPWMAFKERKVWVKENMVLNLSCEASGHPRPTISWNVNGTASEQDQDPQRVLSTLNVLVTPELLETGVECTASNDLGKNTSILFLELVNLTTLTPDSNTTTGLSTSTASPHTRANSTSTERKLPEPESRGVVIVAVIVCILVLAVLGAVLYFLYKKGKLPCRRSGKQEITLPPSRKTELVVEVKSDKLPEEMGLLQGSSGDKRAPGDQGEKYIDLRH

B1: Chimeric 1749 (antibody, V domains shown)
VH: DVKLVESGGDLVKPGGSLKLSCAASGFTFSSYIMSWVRQTPEKRLEWVATISSGGSSTYYPDSVKGRFTISRDNAKNTLYLQMSSLKSEDTAMYYCTRDDDYDVKVFAYWGQGTLVTVSA
VL: DIVMSQSPSSLAVSAGEKVTMNCKSSRSLLNSRIRKNYLAWYQQKPGQSPKLLIYWASTRESGVPDRFTGSGSGTDFTLTISSVQAEDLAVYYCKQSYNLLTFGAGTKLELK
notes: also called ch1749
B2: Human 1749VH3VL3 (Hu1749VHv3 and Hu1749VLv3) (antibody, V domains shown)
VH: B1 VH with D1E, D10G, K13Q, K19R, A120S
VL: DIVMTQSPSSLAVSLGERVTINCKSSRSLLNSRIRKNYLAWYQQKPGQSPKLLIYWASTRESGVPDRFSGSGSGTDFTLTISSLQAEDVAVYYCKQSYNLLTFGQGTKVEIKR
notes: also called hu1749VH3VL3; hu1749H3L3
B3: human MCAM I141A single mutant displayed on mammalian cells (receptor)
chain: T5 chain with I118A
B4: human MCAM D216A single mutant displayed on mammalian cells (receptor)
chain: T5 chain with D193A
B5: rat anti-human MCAM monoclonal antibody clone 2107.4.10 (antibody, V domains shown)
VH: QVQLKESGPGLVQSSQTLSLTCTVSGFSLTSNGVSWVRQPPGKGLEWIAAISSGGSTYYNSAFKSRLSISRNTSKSQVLLKMNSLQTEDTGMYFCARHRPFYFDYWGQGVMVTVSS
VL: DIQVTQSPSLLSASVGDRVTLNCKGSQNIYKSLAWFRLKRGEAPKLLIYDANSLQTGIPSRFSGSGSGTDFTLTITSLQPEDVATYFCQQYYSGYTFGAGTKLELK
notes: Rat hybridoma monoclonal antibody
B6: mouse anti-human MCAM monoclonal antibody clone 1415.1.1 (antibody, V domains shown)
VH: QVQLQQPGAELVQPGAPVKLSCKASGYIFTSYWMNWVKQRPGRGLEWIGRIDPSDSKIHYNQKFKDKATLTVDRSSSTAYIQLGSLTSEDSAVYYCAKEGGLRRGDYAMDYWGQGTSVTVSS
VL: DIVMTQSPATLSVTPGDRVSLSCRASQSISDYLHWYQQKSHESPRLLIKYASQSISGIPSRFSGSGSGSDFTLSINSVEPEDVGVYYCQNGHNFPRTFGGGTKLEIK
notes: Mouse hybridoma monoclonal antibody
B7: mouse anti-human MCAM monoclonal antibody clone 1414.1.2 (antibody, V domains shown)
VH: EIQLQQTGPELVKPGASVKISCKASGYSFTDYIMLWVKQSHGKSLEWIGNINPYSGSSGYNLKFKGKATLTVDKSSSTAYMQLNSLTSEDSAVYYCARGKDFAMDYWGQGTSVTVSS
VL: B1 VL with N22S, R27Q, R33S, I34T, Y38F, L100R, L101Y, A105G, L111I
notes: as for B6
B8: mouse anti-human MCAM monoclonal antibody clone 1174.1.3 (antibody, V domains shown)
VH: QIQLVQSGPELKKPGETVKISCKASGYTFTNYGMNWVKQAPGKGLKWMGWINTYTGEPTYADDFKGRFALSLETSASTAYLQINNLKNEDMATYFCARYRYNKYERAMDYWGQGTSVTVSS
VL: DIVLTQSPASLAVSLGQRATISCRASKSVSTSGYSYMYWYQQKPGQPPKLLIYLASNLESGVPARFSGSGSGTDFTLNIHPVEEEDAATYYCQHSRELPFTFGSGTKLEIK
notes: as for B6
B9: rat anti-human MCAM monoclonal antibody clone 2120.4.19 (antibody, V domains shown)
VH: QVQLKESGPGLVQPSQTLSLTCTVSGFSLTSNGVSWVRQPPGKGLEWIAAISSGGTTYYNSAFKSRLSISRNTSKSQVLLKMNSLQTEDTAMYFCARRYGYGWYFDFWGPGTMVTVSS
VL: DIRMTQSPSLLSASVGDRVTLNCKASQNIYNSLAWYQQKLGEGPKVLIFNANSLQTGIPSRFSGSGSGTDFTLTISSLQPEDFATYFCQQFYSGYTFGAGTKLELK
notes: as for B5

Target: T1, human MCAM (antigen of the BLI kinetics …)
Test: BLI, ForteBio Octet QK, apparent KD
Source text: (§1) Apparent ka, apparent kd and apparent KD are binding kinetic parameters obtained using ForteBio assay formats.

Kd	Binder
226 pM	B1
221 pM	B2

Target: T1, human MCAM (antigen of the BLI kinetics …)
Test: BLI, ForteBio Octet QK, apparent ka
Source text: as §1

kon	Binder
1.94e+06 M⁻¹ s⁻¹	B1
1.99e+06 M⁻¹ s⁻¹	B2

Target: T1, human MCAM (antigen of the BLI kinetics …)
Test: BLI, ForteBio Octet QK, apparent kd
Source text: as §1

koff	Binder
0.000439 s⁻¹	B1
0.00044 s⁻¹	B2

The binders below were run against laminin α-4 (UniProt Q16363 25-1823) (assay: FACS on mammalian cells displaying the mutant).
Source text: Twenty point mutants based on the structure information and shotgun mutagenesis information were designed and generated.

Chain of laminin α-4 (Q16363 25-1823): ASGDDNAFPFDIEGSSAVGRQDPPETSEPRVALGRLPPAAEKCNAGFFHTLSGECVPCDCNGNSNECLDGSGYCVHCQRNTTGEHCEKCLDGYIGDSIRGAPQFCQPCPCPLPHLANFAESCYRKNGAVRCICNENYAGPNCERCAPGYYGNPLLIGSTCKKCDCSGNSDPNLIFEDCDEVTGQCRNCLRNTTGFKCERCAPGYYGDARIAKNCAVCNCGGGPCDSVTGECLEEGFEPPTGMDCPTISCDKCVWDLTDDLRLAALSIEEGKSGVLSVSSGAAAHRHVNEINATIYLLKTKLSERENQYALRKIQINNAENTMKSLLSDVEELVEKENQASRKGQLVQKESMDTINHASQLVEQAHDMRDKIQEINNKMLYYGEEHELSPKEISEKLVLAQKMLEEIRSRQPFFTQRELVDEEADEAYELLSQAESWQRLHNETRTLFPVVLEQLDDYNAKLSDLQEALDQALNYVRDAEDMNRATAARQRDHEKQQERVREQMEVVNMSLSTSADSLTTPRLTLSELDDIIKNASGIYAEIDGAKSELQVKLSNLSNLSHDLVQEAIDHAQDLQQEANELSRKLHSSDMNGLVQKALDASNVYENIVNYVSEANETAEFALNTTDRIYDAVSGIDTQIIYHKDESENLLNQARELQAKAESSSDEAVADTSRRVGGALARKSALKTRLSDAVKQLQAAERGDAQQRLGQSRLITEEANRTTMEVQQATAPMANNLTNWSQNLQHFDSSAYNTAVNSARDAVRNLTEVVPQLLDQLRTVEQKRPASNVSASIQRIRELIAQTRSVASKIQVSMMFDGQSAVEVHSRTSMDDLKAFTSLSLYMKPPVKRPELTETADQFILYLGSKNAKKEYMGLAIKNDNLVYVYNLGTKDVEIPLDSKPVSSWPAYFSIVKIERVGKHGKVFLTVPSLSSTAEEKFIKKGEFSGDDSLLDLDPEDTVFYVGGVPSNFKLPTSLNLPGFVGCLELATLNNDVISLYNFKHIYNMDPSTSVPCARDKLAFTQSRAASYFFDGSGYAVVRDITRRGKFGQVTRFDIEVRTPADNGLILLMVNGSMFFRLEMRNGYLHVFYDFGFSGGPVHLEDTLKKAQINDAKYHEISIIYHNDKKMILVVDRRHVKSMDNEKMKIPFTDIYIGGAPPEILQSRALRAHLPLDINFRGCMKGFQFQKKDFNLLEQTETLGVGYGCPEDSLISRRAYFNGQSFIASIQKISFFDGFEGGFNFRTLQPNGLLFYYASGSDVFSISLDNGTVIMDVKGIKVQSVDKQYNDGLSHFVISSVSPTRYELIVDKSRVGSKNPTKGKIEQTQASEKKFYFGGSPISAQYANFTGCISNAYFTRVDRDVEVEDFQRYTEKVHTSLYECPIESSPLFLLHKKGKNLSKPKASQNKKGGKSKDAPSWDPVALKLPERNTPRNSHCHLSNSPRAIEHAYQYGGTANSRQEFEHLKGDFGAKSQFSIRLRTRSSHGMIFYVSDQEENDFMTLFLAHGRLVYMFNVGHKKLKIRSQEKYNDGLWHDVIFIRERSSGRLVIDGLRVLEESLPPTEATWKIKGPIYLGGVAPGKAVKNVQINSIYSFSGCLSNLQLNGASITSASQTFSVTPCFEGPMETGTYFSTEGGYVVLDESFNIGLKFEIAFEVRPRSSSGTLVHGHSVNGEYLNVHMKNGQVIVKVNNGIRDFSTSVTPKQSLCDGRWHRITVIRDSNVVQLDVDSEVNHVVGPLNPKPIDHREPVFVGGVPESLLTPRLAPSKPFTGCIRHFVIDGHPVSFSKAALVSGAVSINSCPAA

binding result	Binder
no binding	B3
no binding	B4

The binders below were run against T2, human MCAM domain 1 (amino acids …) (assay: ForteBio BLI, MCAMhFc domains on anti-human IgG Fc biosensors).
Source text: (§2) The following protocol was used: ForteBio anti-human IgG Fc biosensors were used to immobilize various MCAMhFc domains including full length MCAMhFc protein on to biosensor surface. […] After loading these samples into a black 96 well plate, the Octet Red was programmed as follows: 60 seconds for baseline #1; 180 seconds for loading various domains; 60 seconds for baseline #2; 180 seconds for association of antibody to domain; and 240 seconds for dissociation of antibody from domain.
(§3) 1. MCAMhFc final concentration @ 5 ug/ml [0329] […] 3. ForteBio anti-human IgG Fc Capture (AHC) biosensors for kinetics experiments, cat #18-5060 [0331] 4. Block 96 well plate from Greiner Bio-one, cat #655209 [0332] 5. ForteBio Octet Red machine [0333] 6. Fresh tissue culture medium, DMEM with 20% FCS, was used as buffer for dilution The results from these analyses are as follows.

binding result	Binder
no binding (tested: 5 ug/ml)	B5
no binding (tested: 5 ug/ml)	B6
no binding (tested: 5 ug/ml)	B7
no binding (tested: 5 ug/ml)	B8
no binding (tested: 5 ug/ml)	B9

These binders were tested against T3, human MCAM domain 2 (amino acids …) in the same assay as above.
Source text: as §2, §3

binding result	Binder
no binding (tested: 5 ug/ml)	B6
no binding (tested: 5 ug/ml)	B7
no binding (tested: 5 ug/ml)	B8

What follows are binders tested against T4, combination of human MCAM domains 1 and … in the same assay as above.
Source text: as §2, §3

binding result	Binder
no binding (tested: 5 ug/ml)	B6
no binding (tested: 5 ug/ml)	B7
no binding (tested: 5 ug/ml)	B8

Target: T5, human MCAM, full length, expressed on …
Test: flow cytometry, blocking of recombinant human laminin 411 (20 ug/ml) binding to CHO cells expressing human MCAM
Procedure: The 87 independent mouse fusion clones and 26 independent rat fusion clones described in Example 1 above as being capable of (i) binding to human MCAM, and (ii) blocking the interaction between human MCAM and the α-4 chain of laminin were further characterized as follows. First, IC50 quantitation for the ability of the monoclonal antibody to block the binding of human MCAM to the α-4 chain of laminin was determined as follows. CHO cells expressing human MCAM were incubated with an anti-human MCAM antibody (at various concentrations) for 30 minutes at 4 degrees Celsius. […] Unbound laminin was then washed away, and the laminin bound to the surface of the cells was detected with fluorescently labeled anti-laminin antibodies. After washing, the amount of laminin bound to the surface was detected by flow cytometry, and IC50s were calculated based on the mean fluorescent intensity.
Amino acid and nucleic acid sequences of the heavy and light chains of these antibodies, and their hypervariable regions, are provided in SEQ ID NOs:29-92. […] As such, each of these specific monoclonal antibodies was very capable of binding to human MCAM and inhibiting the interaction of cell-expressed human MCAM with its α-4 laminin binding ligand.

IC50	Binder
0.29 µg/mL	B5
0.307 µg/mL	B6
0.431 µg/mL	B7
0.469 µg/mL	B8
0.888 µg/mL	B9
